Laboratory results taken from patent US20150203577A1 (Chugai, published 2015).
Substitutions are numbered along the chain they refer to.

B1: H237-MB364/MRAL-k0 (antibody)
heavy: QVQLQESGPGLVKPSETLSLTCAVSGHSISHDHAWSWVRQPPGEGLEWIGFISYSGITNYNPSLQGRVTISRDNSKNTLYLQMNSLRAEDTAVYYCARSLARTTAMDYWGEGTLVTVSSAKTTPPSVYPLAPGSAAQTNSMVTLGCLVKGYFPEPVTVTWNSGSLSSGVHTFPAVLQSDLYTLSSSVTVPSSTWPSETVTCNVAHPASSTKVDKKIVPRDCGCKPCICEAKEVEDVFIFPPKPKDVLTITLTPKVTCVVVDISKDDPEVQFSWFVDDVEVHTAQTQPREEQFNSTFRSVSELPIMHQDWLNGKEFKCRVNSAAFPAPIEKTISKTKGRPKAPQVYTIPPPKEQMAKDKVSLTCMITDFFPEDITVEWQWNGQPAENYKNTQPIMDTDGSYFVYSKLNVQKSNWEAGNTFTCSVLHEGLHNHHTEKSLSHSPGK
light: not shown
notes: copies: 2 + 2
B2: MB307 (antibody)
heavy: B1 heavy with E229T, K231P, E234S, V236E
light: not shown
notes: copies: 2 + 2
B3: MB320 (antibody, mouse IgG1, kappa)
heavy: B1 heavy with K231E, V236E
light: not shown
notes: copies: 2 + 2
B4: MB326 (antibody, mouse IgG1, kappa)
heavy: B1 heavy with A230V, K231E, V236H
light: not shown
notes: copies: 2 + 2
B5: MB324 (antibody, mouse IgG1, kappa)
heavy: B1 heavy with A230D, K231E, V236H
light: not shown
notes: copies: 2 + 2
B6: MB321 (antibody, mouse IgG1, kappa)
heavy: B1 heavy with K231E, V236H
light: not shown
notes: copies: 2 + 2
B7: MB318 (antibody, mouse IgG1, kappa)
heavy: B1 heavy with A230V, K231E
light: not shown
notes: copies: 2 + 2
B8: MB323 (antibody, mouse IgG1, kappa)
heavy: B1 heavy with A230D, K231E, V236E
light: not shown
notes: copies: 2 + 2
B9: MB325 (antibody, mouse IgG1, kappa)
heavy: B1 heavy with A230V, K231E, V236E
light: not shown
notes: copies: 2 + 2
B10: MB322 (antibody, mouse IgG1, kappa)
heavy: B1 heavy with A230D, K231E
light: not shown
notes: copies: 2 + 2
B11: MB311 (antibody, mouse IgG1, kappa)
heavy: B1 heavy with E229T, A230D, K231P, E234S, V236E
light: not shown
notes: copies: 2 + 2
B12: MB310 (antibody, mouse IgG1, kappa)
heavy: B1 heavy with E229T, A230D, K231P
light: not shown
notes: copies: 2 + 2
B13: MB309 (antibody, mouse IgG1, kappa)
heavy: B1 heavy with E229T, A230D, K231E, E234S
light: not shown
notes: copies: 2 + 2
B14: MB317 (antibody, mouse IgG1, kappa)
heavy: B1 heavy with E229T, A230V, K231P, V236H
light: not shown
notes: copies: 2 + 2
B15: MB319 (antibody, mouse IgG1, kappa)
heavy: B1 heavy with K231E
light: not shown
notes: copies: 2 + 2
B16: MB313 (antibody, mouse IgG1, kappa)
heavy: B1 heavy with E229T, A230V, K231E
light: not shown
notes: copies: 2 + 2
B17: MB308 (antibody, mouse IgG1, kappa)
heavy: B1 heavy with E229T, K231P, E234S, V236H
light: not shown
notes: copies: 2 + 2
B18: MB312 (antibody, mouse IgG1, kappa)
heavy: B1 heavy with E229T, A230D, K231P, E234S, V236H
light: not shown
notes: copies: 2 + 2
B19: MB314 (antibody, mouse IgG1, kappa)
heavy: B1 heavy with E229T, A230V, K231E, E234S, V236E
light: not shown
notes: copies: 2 + 2
B20: MB316 (antibody, mouse IgG1, kappa)
heavy: B1 heavy with E229T, A230V, K231P, V236E
light: not shown
notes: copies: 2 + 2
B21: MB315 (antibody, mouse IgG1, kappa)
heavy: B1 heavy with E229T, A230V, K231E, E234S, V236H
light: not shown
notes: copies: 2 + 2

Target: T1, mouse FcγRIII extracellular domain, C-terminal His tag (mouse, UniProt P08508 31-215)
T1 construct: Whole entry named; also called mFcγRIII; mFcgRIII
T1 chain: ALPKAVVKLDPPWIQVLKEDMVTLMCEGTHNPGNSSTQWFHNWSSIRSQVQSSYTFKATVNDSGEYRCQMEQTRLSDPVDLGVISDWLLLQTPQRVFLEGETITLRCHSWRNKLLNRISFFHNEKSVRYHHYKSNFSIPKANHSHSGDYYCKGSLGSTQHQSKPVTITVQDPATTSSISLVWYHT
Test: SPR (Biacore T200); KD of H237-mIgG1/MRAL-k0 / KD of variant

Binder	relative mFcγRIII-binding activity (mIgG1 = 1)
B1	1.35 fold

The binders below were run against T2, mouse FcγRII extracellular domain, C-terminal His tag (mouse, UniProt P08101 30-210) in the same assay as above.
T2 construct: Whole entry named; also called mFcγRII; mFcgRII
T2 sequence: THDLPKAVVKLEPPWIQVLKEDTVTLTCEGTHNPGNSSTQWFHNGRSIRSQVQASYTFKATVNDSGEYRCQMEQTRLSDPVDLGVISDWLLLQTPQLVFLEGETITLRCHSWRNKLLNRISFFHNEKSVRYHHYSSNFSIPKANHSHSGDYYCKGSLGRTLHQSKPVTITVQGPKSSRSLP

Binder	relative mFcγRII-binding activity (mIgG1 = 1)
B1	6.55 fold

Target: T3, mouse FcγRIII (mouse, UniProt P08508 31-215)
T3 construct: also called mFcγRIII; mFcgRIII
T3 chain: T1 chain
Test: SPR Biacore T200, KD ratio
From the text: (§1) The antibody H chain variable region used was the variable region H237 (SEQ ID NO: 1) of the H chain VH3-IgG1 of the anti-IL-6 receptor antibody Fv4-IgG1 described in WO2009/125825. The antibody L chain commonly used was the L chain MRAL-k0 (SEQ ID NO: 2) of the anti-IL-6 receptor antibody tocilizumab. […] The resulting variant group was designated as MB110 variants. These variants were expressed and purified by the method of Reference Example 1 and evaluated for their binding to mFcγRII and mFcγRIII by the method of Reference Example 2 using Biacore T200.
(§2) Each altered antibody was analyzed for its interaction with each Fcγ receptor prepared above using Biacore T100 (GE Healthcare Japan Corp.), Biacore T200 (GE Healthcare Japan Corp.), Biacore A100, or Biacore 4000. The running buffer used was HBS-EP+ (GE Healthcare Japan Corp.). The assay temperature was set to 25° C. The sensor chips used were chips prepared by immobilizing Protein L (ACTIGEN or BioVision) onto Series S Sensor Chip CM5 (GE Healthcare Japan Corp.) or Series S Sensor Chip CM4 (GE Healthcare Japan Corp.) by the amine coupling method.
(§3) In order to calculate the KD value of each altered antibody for FcγR, kinetic analysis was conducted according to the following method: first, the antibody of interest was captured onto any of these chips and allowed to interact with mFcγR diluted with a running buffer. For the obtained sensorgram, the assay results were globally fit into the 1:1 Langmuir binding model using Biacore Evaluation Software to calculate an association rate constant ka (L/mol/s) and a dissociation rate constant kd (1/s). From these values, the dissociation constant KD (mol/L) was calculated.

Binder	Relative mFcγRIII-binding activity (MB110 = 1)	relative mFcγRIII-binding activity (mIgG1 = 1)
B2	0.55 fold	2.2 fold
B3	0.11 fold	0.4 fold
B4	0.06 fold	0.2 fold
B5	0.03 fold	0.1 fold
B6	0.05 fold	0.2 fold
B7	0.96 fold	3.9 fold
B8	0.03 fold	0.1 fold
B9	0.15 fold	0.6 fold
B10	0.31 fold	1.3 fold
B11	0.52 fold	2.1 fold
B12	0.96 fold	3.8 fold
B13	0.96 fold	3.9 fold
B14	0.12 fold	0.5 fold
B15	0.89 fold	3.6 fold
B16	0.99 fold	4 fold
B17	0.67 fold	2.7 fold
B18	0.87 fold	3.5 fold
B19	0.27 fold	1.1 fold
B20	0.31 fold	1.2 fold
B21	0.2 fold	0.8 fold

What follows are binders tested against T4, mouse FcγRII (mouse, UniProt P08101 30-210) (assay: SPR Biacore T200, KD ratio).
T4 construct: also called mFcγRII; mFcgRII
T4 sequence: T2 sequence
From the text: as §1, §2, §3

Binder	Relative mFcγRII-binding activity (MB110 = 1)	relative mFcγRII-binding activity (mIgG1 = 1)
B2	0.92 fold	11.3 fold
B3	0.26 fold	3.2 fold
B4	0.33 fold	4 fold
B5	0.09 fold	1.1 fold
B6	0.28 fold	3.5 fold
B7	3.29 fold	40.5 fold
B8	0.13 fold	1.7 fold
B9	0.38 fold	4.7 fold
B10	0.75 fold	9.2 fold
B11	1.43 fold	17.6 fold
B12	3.16 fold	38.8 fold
B13	2.27 fold	27.9 fold
B14	0.49 fold	6 fold
B15	4.07 fold	50 fold
B16	3.27 fold	40.1 fold
B17	2.14 fold	26.3 fold
B18	4.51 fold	55.4 fold
B19	0.58 fold	7.1 fold
B20	0.61 fold	7.4 fold
B21	0.48 fold	5.9 fold
